Assay results as given in paper PMC8038991 (2021).
Ends that are not written are not given here.

Legend:
[1] = molecular target: N132Q ZZ fragment p62 (122-175) (Homo sapiens); assay: ITC
[2] = molecular target: purified wild type ZZ fragment p62 (122-175) of the ITC table (Fig. 3b) (human, UniProt Q13501 122-175); assay: ITC

N132Q ZZ fragment p62 (122-175) (Homo sapiens), sequence (chain, as listed by the source N132Q): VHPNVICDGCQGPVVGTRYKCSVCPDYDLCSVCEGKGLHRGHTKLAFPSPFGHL

| Binder | Kd [1] [µM] | Kd [2] [µM] |
| --- | --- | --- |
| YIFS (also: two Zn2+ ions bound) [YIFS tetrapeptide (Nt-Tyr)] | 143 | – |
| HIFS | – | 300 |
| KIFS | – | 51.8 |
| WIFS | – | 374 |
| RIFS (also: two Zn2+ ions bound) [RIFS tetrapeptide (Nt-Arg)] | 21.4 | – |
